# Reference: US20140120113A1
# Legend:
# Experiment in all cases: cell-based or functional assay
# [1] = biological target: HA of influenza virus A/Panama/2007/1999 (H3) (Influenza A virus A/Panama/2007/1999 (H3))
# [2] = biological target: HA of influenza virus A/EW/MPD411/07 (H6) (Influenza A virus A/Eurasian Wigeon/MPD411/07 (H6))
# [3] = biological target: HA of influenza virus A/WF/MPA 892/06 (H4) (Influenza A virus A/WF/HK/MPA892/06 (H4))
# [4] = biological target: HA of influenza virus A/Hiroshima/52/2005 (H3) (Influenza A virus A/Hiroshima/52/2005 (H3))
# [5] = biological target: HA of influenza virus A/EW/MPF461/07 (H5) (Influenza A virus A/Eurasian Wigeon/MPF461/07 (H5))
# [6] = biological target: HA of influenza virus A/Johannesburg/33/94 (H3) (Influenza A virus A/Johannesburg/33/94 (H3))
# [7] = biological target: HA of influenza virus A/Hong Kong/1/68 (H3) (Influenza A virus A/Hong Kong/1/68 (H3)) (UniProt Q91MA7)
# [8] = biological target: HA of influenza virus A/Brisbane/10/2007 (H3) (Influenza A virus A/Brisbane/10/2007 (H3))
# [9] = biological target: HA of influenza virus A/Hong Kong/1073/99 (H9) (Influenza A virus A/Hong Kong/1073/99 (H9))
# [10] = biological target: HA of influenza virus A/Brisbane/59/2007 (H1) (Influenza A virus A/Brisbane/59/2007 (H1))
# [11] = biological target: HA of influenza virus A/Ck/HK/SSP176/09 (H9) (Influenza A virus A/Chick/HK/SSP176/09 (H9))
# [12] = biological target: HA of influenza virus A/Env/MPU3156/05 (H2) (Influenza A virus A/Env/MPU3156/05 (H2))
# [13] = biological target: HA of influenza virus A/EW/MPH571/08 (H8) (Influenza A virus A/Eurasian Wigeon/MPH571/08 (H8))
# [14] = biological target: HA of influenza virus A/Chick/Germany/N/49 (H10) (Influenza A virus A/Chick/Germany/N/49 (H10)) (UniProt P12581)
# UniProt P12581, sequence (P12581 17-561 limits assumed): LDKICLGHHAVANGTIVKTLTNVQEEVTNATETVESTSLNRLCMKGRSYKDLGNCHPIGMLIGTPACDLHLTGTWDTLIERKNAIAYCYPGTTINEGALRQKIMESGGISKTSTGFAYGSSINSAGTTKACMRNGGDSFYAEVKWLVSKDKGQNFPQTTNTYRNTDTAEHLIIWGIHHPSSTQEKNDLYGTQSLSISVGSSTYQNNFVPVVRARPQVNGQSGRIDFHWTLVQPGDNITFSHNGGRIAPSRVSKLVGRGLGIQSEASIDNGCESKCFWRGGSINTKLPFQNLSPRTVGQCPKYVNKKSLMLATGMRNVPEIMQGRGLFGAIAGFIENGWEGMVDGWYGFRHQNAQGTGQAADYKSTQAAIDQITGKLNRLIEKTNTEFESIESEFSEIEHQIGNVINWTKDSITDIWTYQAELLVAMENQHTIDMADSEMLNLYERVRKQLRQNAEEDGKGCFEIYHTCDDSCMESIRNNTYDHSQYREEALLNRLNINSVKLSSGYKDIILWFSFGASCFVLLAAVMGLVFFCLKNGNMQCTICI
substance,measurement,setting,value
CR9114 (antibody),"geomean IC50, virus neutralization assay (VNA)",[1],39.9 µg/mL
same,"geomean IC50, virus neutralization assay (VNA)",[2],10.5 µg/mL
same,"geomean IC50, virus neutralization assay (VNA)",[3],0.8 µg/mL
same,"geomean IC50, virus neutralization assay (VNA)",[4],12.5 µg/mL
same,"geomean IC50, virus neutralization assay (VNA)",[5],10.5 µg/mL
same,"geomean IC50, virus neutralization assay (VNA)",[6],21.9 µg/mL
same,"geomean IC50, virus neutralization assay (VNA)",[7],19 µg/mL
same,"geomean IC50, virus neutralization assay (VNA)",[8],5.6 µg/mL
same,"geomean IC50, virus neutralization assay (VNA)",[9],4.4 µg/mL
same,"geomean IC50, virus neutralization assay (VNA)",[10],2.6 µg/mL
same,"geomean IC50, virus neutralization assay (VNA)",[11],6.3 µg/mL
same,"geomean IC50, virus neutralization assay (VNA)",[12],8.8 µg/mL
same,"geomean IC50, virus neutralization assay (VNA)",[13],8.8 µg/mL
same,"geomean IC50, virus neutralization assay (VNA)",[14],15.7 µg/mL
